Results on two molecules are retold here after article PMC10057379.

Where no end group is shown, it is not given here.

In one experiment the target is NRP-1 (Homo sapiens) (UniProt O14786). In words: SPR. Conditions: cited from earlier work.
The target in experiment [1] is Neuropilin-1 (NRP-1) (human (endogenous in THP-1)) (UniProt O14786).

In the case of KDKPPR peptide, the Kd with NRP-1 (Homo sapiens) is 4.7 µM.

B1: KDKPPR ligand peptide on AGuIX@PS@KDKPPR nanoparticles (peptide)
peptide: KDKPPR
modifications: also: grafted onto AGuIX nanoparticles with porphyrin and gadolinium
B1: in experiment [1], the uptake of AGuIX@PS@KDKPPR nanoparticles (1 µM, 4 h or 24 h, 37 °C) by M0, M1 and M2 macrophages, porphyrin fluorescence of the cell lysate; control: AGuIX@PS@scramble, 24 h (fold (M0 and M2 against M1, 24 h)) came to 3.

By Kd is commonly meant the constant that tells how readily two partners part at equilibrium.
